The target in assay [1] is T1, human EphA4 extracellular region-SEAP-His protein (human, UniProt P54764 20-547).
T1 construct: also called hEphA4-SEAP-His
The experiment in a line: SPR, Ab captured. Here is the method:
The binding affinity of each anti-EphA4 monoclonal humanized antibody obtained in Example 16 for human EphA4 was determined by surface plasmon resonance (SPR) using Biacore T200 (GE Healthcare). First, for the assay of antibody A, a rat anti-mouse IgG₁ antibody produced with a conventional method by immunizing rat with mouse IgG₁ antibody was immobilized on sensor chip CM5. The immobilization of the rat anti-mouse IgG1 antibody on sensor chip CM5 was performed by the amine coupling method using N-hydroxysuccinimide (NHS) and N-ethyl-N′-(3-dimethylaminopropyl)carbodiimide hydrochloride (EDC). Ethanolamine was used in blocking (the sensor chip and the reagents for immobilization were all manufactured by GE Healthcare). The antibody was diluted with a buffer solution for immobilization (10 mM sodium acetate, pH 4.5) and immobilized on the sensor chip according to the protocol attached to Biacore T200. For the assay of each humanized monoclonal antibody, a protein A chip (GE Healthcare, 29-1383-03) was used. Antibody A or the humanized monoclonal antibody was diluted with a running buffer solution HBS-EP (GE Healthcare), injected onto only flow cell 2 for 120 seconds, and captured (captured amount: approximately 30 to 60 RU). Subsequently, human EphA4 extracellular region-SEAP-His protein serially diluted in the range of 50, 16.7, 5.6, 1.9, and 0.6 nM using HBS-EP was sequentially added from the lower toward higher concentration sides without regeneration operation. Binding reaction curves were sequentially observed at the time of the addition (association phase, for 120 sec) and after the completion of the addition (dissociation phase, for 900 sec). After the completion of each observation, the sensor chip was regenerated by the addition of 3 M MgCl₂ (for 60 sec) or 10 mM Glycine-HCl pH 1.5 (for 30 sec). The obtained binding reaction curves were subjected to fitting analysis with 1:1 binding models using software BIA evaluation attached to the system to calculate the affinity (KD=kd/ka) for human EphA4 (Table 6).
(In general: Surface plasmon resonance follows binding to a sensor surface in real time, without labels.)

The target of assay [2] is T1, human EphA4 extracellular …. The experiment in a line: ELISA. Here is the method: (§1) Each well of a 96-well plate (Nunc) was coated with a rabbit anti-6-His antibody (Bethyl Laboratories). Each well was […] After washing with 0.05% Tween 20/PBS (Nacalai Tesque) three times, the SEAP-His protein of human EphA1, EphA2, EphA3, EphA4, EphA5, EphA6, EphA7, EphA8, EphA10, EphB1, EphB2, EphB3, EphB4, or EphB6 was added (final concentration: 1 nM) to each well and incubated at room temperature for 1 hour. After washing three times, the humanized antibody was added to each well and incubated at room temperature for 1 hour. After washing three times, a horseradish peroxidase-labeled donkey […] antibody (Jackson ImmunoResearch Laboratories) was added thereto and incubated at room temperature for 1 hour. After washing three times, TMB Microwell Peroxidase Substrate System (Kirkegaard & Perry Laboratories (KPL)) was added to each well. After confirmation of moderate color development, an equal amount of a reaction stopping solution (1N H₂SO₄, Wako Pure Chemical Industries) was added to each well. The absorbance at 450 nm was read using a microplate reader (Thermo Fisher Scientific).
(In general: An ELISA detects its analyte on a solid surface through an enzyme-linked reagent.)

The target in assay [3] is T2, human EphA8 extracellular region-SEAP-His protein (human, UniProt P29322 28-542).
T2 construct: extracellular domain; also called hEphA8-SEAP-His
T2 sequence (looked up): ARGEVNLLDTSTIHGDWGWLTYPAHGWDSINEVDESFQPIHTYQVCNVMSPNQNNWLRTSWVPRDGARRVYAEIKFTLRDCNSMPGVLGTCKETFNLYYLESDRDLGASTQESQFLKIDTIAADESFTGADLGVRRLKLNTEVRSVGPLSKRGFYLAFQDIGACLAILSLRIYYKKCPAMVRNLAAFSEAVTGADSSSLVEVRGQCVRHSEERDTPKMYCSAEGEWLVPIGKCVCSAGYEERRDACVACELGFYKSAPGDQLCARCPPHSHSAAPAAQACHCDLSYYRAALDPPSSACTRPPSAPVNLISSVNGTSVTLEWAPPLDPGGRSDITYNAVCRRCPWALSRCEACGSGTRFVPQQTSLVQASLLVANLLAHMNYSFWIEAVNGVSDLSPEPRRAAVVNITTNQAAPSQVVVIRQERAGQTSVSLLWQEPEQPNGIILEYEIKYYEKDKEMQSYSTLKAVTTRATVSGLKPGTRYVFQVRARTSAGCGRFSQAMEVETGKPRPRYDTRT
In words: ELISA. Here is the method: as §1

The target in assay [4] is T1, human EphA4 extracellular …. In words: competition ELISA, competitor human Ephrin A5-Fc. The method, then: Each anti-EphA4 monoclonal humanized antibody obtained in Example 16 was evaluated for its inhibitory activity against the binding between human EphA4 and its human ligand according to the following steps. Each well of a 96-well plate (Nunc) was coated with an anti-alkaline phosphatase antibody (Thermo Fisher Scientific). After incubation overnight at 4° C., each well was blocked with 1% BlockAce (DS Pharma Biomedical) at room temperature for 1 hour. After washing with 0.05% Tween 20/PBS (Thermo Fisher Scientific) three times, the human EphA4 extracellular region-SEAP-His protein obtained by the method of Example 2 was added (final concentration: 10 nM) to each well and incubated at room temperature for 1 hour. After washing three times, a ligand and each serially diluted humanized antibody of antibody A (0, 0.003, 0.01, 0.03, 0.1, 0.3, 1, 3, 10, 30, 100, 300, 1000, and 3000 nM) were added to each well. The ligand used was biotinylated human Ephrin A5-Fc chimera (R&D Systems, final concentration: 0.7 nM). After incubation at room temperature for 1 hour and subsequent washing three times, horseradish peroxidase-labeled streptavidin (GE Healthcare) was added thereto and incubated at room temperature for 1 hour. After washing three times, a TMBZ (3,3′,5,5′-tetramethylbenzidine, Sigma-Aldrich) solution was added to each well and incubated at room temperature for 2 minutes. An equal amount of a reaction stopping solution (1N H₂SO₄, Wako Pure Chemical Industries) was added to each well. The absorbance at 450 nm was read using a microplate reader (PerkinElmer).

Substitutions are numbered along the chain they refer to.

T1 sequence (P54764 20-547): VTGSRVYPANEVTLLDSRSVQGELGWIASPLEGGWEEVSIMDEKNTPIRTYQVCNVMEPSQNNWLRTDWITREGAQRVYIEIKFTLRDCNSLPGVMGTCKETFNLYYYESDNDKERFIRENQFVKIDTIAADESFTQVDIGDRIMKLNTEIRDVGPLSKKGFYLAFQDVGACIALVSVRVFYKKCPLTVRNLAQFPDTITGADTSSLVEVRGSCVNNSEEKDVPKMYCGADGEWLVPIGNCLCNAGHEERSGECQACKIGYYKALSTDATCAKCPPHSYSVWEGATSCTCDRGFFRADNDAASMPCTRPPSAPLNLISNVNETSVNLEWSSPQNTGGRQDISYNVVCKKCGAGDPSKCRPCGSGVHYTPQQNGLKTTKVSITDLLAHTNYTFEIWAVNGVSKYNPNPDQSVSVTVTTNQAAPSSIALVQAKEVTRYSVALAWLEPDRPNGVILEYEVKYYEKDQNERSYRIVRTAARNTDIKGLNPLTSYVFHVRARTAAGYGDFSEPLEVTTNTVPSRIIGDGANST

B1: humanized antibody No. 85 (antibody, human IgG1, kappa)
heavy: QVQLVQSGSELKKPGASVKVSCKASGYTFTDYSMHWVRQAPGQGLKWMGWINTETGEPTYADDFKGRFVFSLDTSVSTAYLQISSLKAEDTAVYYCARIPLYYYGSRYWYFDVWGQGTTVTVSSASTKGPSVFPLAPSSKSTSGGTAALGCLVKDYFPEPVTVSWNSGALTSGVHTFPAVLQSSGLYSLSSVVTVPSSSLGTQTYICNVNHKPSNTKVDKRVEPKSCDKTHTCPPCPAPPAAAPSVFLFPPKPKDTLMISRTPEVTCVVVDVSHEDPEVQFNWYVDGVEVHNAKTKPREEQFNSTFRVVSVLTVVHQDWLNGKEYKCKVSNKGLPAPIEKTISKTKGQPREPQVYTLPPSREEMTKNQVSLTCLVKGFYPSDIAVEWESNGQPENNYKTTPPMLDSDGSFFLYSKLTVDKSRWQQGNVFSCSVMHEALHNHYTQKSLSLSPG
light: DIQMTQSPSSLSASVGDRVTITCRASENIYRNLAWYQQKPGKAPKLLLYAATNLADGVPSRFSGSGSGTDYTLTISSLQSEDFATYYCQHFWGTPWTFGQGTKVEIKRTVAAPSVFIFPPSDEQLKSGTASVVCLLNNFYPREAKVQWKVDNALQSGNSQESVTEQDSKDSTYSLSSTLTLSKADYEKHKVYACEVTHQGLSSPVTKSFNRGEC
notes: human Ig kappa; also called L1-5/HK2
In the case of B1, in assay [1], the Kd (in general, the concentration at which binding is half-saturated) was determined as 1.6 nM; the koff (in general, the rate constant with which the complex falls apart) amounted to 0.0005 s⁻¹; the kon (usually the rate constant with which the complex forms) is 310000 M⁻¹ s⁻¹. The “A450 as % of hEphA4-SEAP-His” value in assay [2] came to 100%. Also, in assay [3], the “A450 as % of hEphA4-SEAP-His” value amounted to 5.5%. In addition, the IC50 (usually the concentration that gives 50% inhibition) in assay [4] was determined as 4 nM.

B2: humanized antibody No. 140 (antibody, human IgG2)
heavy: QVQLVQSGSELKKPGASVKVSCKASGYTFTDYSMHWVRQAPGQGLKWMGWINTETGEPTYAQGFTGRFVFSLDTSVSTAYLQISSLKAEDTAVYYCARIPLYYYGSRYWYFDVWGQGTTVTVSSASTKGPSVFPLAPSSRSTSESTAALGCLVKDYFPEPVTVSWNSGALTSGVHTFPAVLQSSGLYSLSSVVTVPSSNFGTQTYTCNVDHKPSNTKVDKTVERKSCVECPPCPAPPAAAPSVFLFPPKPKDTLMISRTPEVTCVVVDVSHEDPEVQFNWYVDGVEVHNAKTKPREEQFNSTFRVVSVLTVVHQDWLNGKEYKCKVSNKGLPAPIEKTISKTKGQPREPQVYTLPPSREEMTKNQVSLTCLVKGFYPSDIAVEWESNGQPENNYKTTPPMLDSDGSFFLYSKLTVDKSRWQQGNVFSCSVMHEALHNHYTQKSLSLSPG
light: B1 light with L48V, S80P
notes: human Ig kappa; also called L1-4/HA2
In the case of B2, in assay [1], the dissociation constant Kd came out at 1.4 nM, the koff was determined as 0.00043 s⁻¹ and the kon amounted to 320000 M⁻¹ s⁻¹. For the same molecule, in assay [2], the “A450 as % of hEphA4-SEAP-His” value is 100%. Moreover, the “A450 as % of hEphA4-SEAP-His” value in assay [3] came out at 5.4%. The IC50 in assay [4] is 2.4 nM.

B3: humanized antibody No. 87 (antibody, human IgG1, kappa)
heavy: B1 heavy with K46E, D62Q, D63G, K65T
light: B1 light with K45Q, S80P
notes: human Ig kappa; also called L1-6/HA1
As for B3, in assay [1], binding was characterised by a dissociation constant (Kd) of 1.5 nM, the koff turned out to be 0.00051 s⁻¹ and the kon amounted to 350000 M⁻¹ s⁻¹. In assay [2], the “A450 as % of hEphA4-SEAP-His” value was determined as 100%. For the same molecule, in assay [3], the “A450 as % of hEphA4-SEAP-His” value turned out to be 5.7%. This molecule came in with an IC50 in assay [4] of 3 nM.

B4: humanized antibody No. 90 (antibody, human IgG1, kappa)
heavy: B1 heavy with K46E
light: B1 light with K45Q, S80P
notes: human Ig kappa; also called L1-6/HK1
In assay [1], B4 came in with a Kd of 1.5 nM, a koff of 0.00055 s⁻¹ and a kon of 360000 M⁻¹ s⁻¹. Besides, the “A450 as % of hEphA4-SEAP-His” value in assay [2] turned out to be 100%. For the same molecule, the “A450 as % of hEphA4-SEAP-His” value in assay [3] stood at 5.4%. The IC50 in assay [4] was 4.5 nM.

B5: humanized antibody No. 86 (antibody, human IgG1, kappa)
heavy: B1 heavy with V2I
light: B1 light
notes: human Ig kappa; also called L1-5/HK4
Take B5: in assay [1], the Kd was determined as 1.5 nM, the koff was 0.00046 s⁻¹ and the kon came to 310000 M⁻¹ s⁻¹. In addition, the “A450 as % of hEphA4-SEAP-His” value in assay [2] was 100%. For the same molecule, the “A450 as % of hEphA4-SEAP-His” value in assay [3] amounted to 5.7%. The IC50 in assay [4] is 4 nM.

B6: humanized antibody No. 138 (antibody, human IgG2)
heavy: B2 heavy with V2I
light: B1 light with L48V, S80P
notes: human Ig kappa; also called L1-4/HA4
On to B6, for which, in assay [1], the Kd came out at 1.3 nM, the koff stood at 0.00043 s⁻¹ and the kon was determined as 330000 M⁻¹ s⁻¹. In assay [2], the “A450 as % of hEphA4-SEAP-His” value came to 100%. Also, the “A450 as % of hEphA4-SEAP-His” value in assay [3] came out at 5.4%. Moreover, in assay [4], the IC50 amounted to 2.9 nM.

B7: humanized antibody No. 89 (antibody, human IgG1, kappa)
heavy: B1 heavy with V2I, D62Q, D63G, K65T
light: B1 light with K45Q, S80P
notes: human Ig kappa; also called L1-6/HA4
In assay [1], B7 showed a Kd of 1.3 nM, a koff of 0.00041 s⁻¹ and a kon of 310000 M⁻¹ s⁻¹. Further, in assay [2], the “A450 as % of hEphA4-SEAP-His” value came to 100%. Moreover, the “A450 as % of hEphA4-SEAP-His” value in assay [3] amounted to 5.7%. Further, the IC50 in assay [4] stood at 4.3 nM.

B8: humanized antibody No. 88 (antibody, human IgG1, kappa)
heavy: B1 heavy with D62Q, D63G, K65T
light: B1 light with K45Q, S80P
notes: human Ig kappa; also called L1-6/HA2
On to B8, for which, in assay [1], the equilibrium dissociation constant (Kd) is 1.4 nM, the koff came out at 0.00042 s⁻¹ and the kon is 300000 M⁻¹ s⁻¹. In addition, the “A450 as % of hEphA4-SEAP-His” value in assay [2] was 100%. The “A450 as % of hEphA4-SEAP-His” value in assay [3] was found to be 6.2%. Also, in assay [4], the IC50 is 3.6 nM.

B9: humanized antibody No. 91 (antibody, human IgG1, kappa)
heavy: B1 heavy
light: B1 light with K45Q, S80P
notes: human Ig kappa; also called L1-6/HK2
In assay [1], B9 displayed a Kd of 1.3 nM, a koff of 0.00044 s⁻¹ and a kon of 330000 M⁻¹ s⁻¹. Moreover, the “A450 as % of hEphA4-SEAP-His” value in assay [2] turned out to be 100%. Also, in assay [3], the “A450 as % of hEphA4-SEAP-His” value was determined as 6.2%. The IC50 in assay [4] is 4.9 nM.

B10: humanized antibody No. 92 (antibody, human IgG1, kappa)
heavy: B1 heavy with V2I
light: B1 light with K45Q, S80P
notes: human Ig kappa; also called L1-6/HK4
For the molecule B10, in assay [1], the Kd amounted to 1.3 nM, the koff amounted to 0.00043 s⁻¹ and the kon worked out at 330000 M⁻¹ s⁻¹. The “A450 as % of hEphA4-SEAP-His” value in assay [2] worked out at 100%. Further, the “A450 as % of hEphA4-SEAP-His” value in assay [3] turned out to be 6.7%. In assay [4], this molecule yielded an IC50 of 3.5 nM.
